The text below walks through data of US20190324022, “METHODS AND SYSTEMS FOR IDENTIFYING CANDIDATE NUCLEIC ACID AGENT” (APTITUDE MEDICAL SYSTEMS, INC., published 2019).

Series [1] addresses NGAL (Neutrophil Gelatinase-Associated Lipocalin) (Homo sapiens, UniProt P80188 P80188:21-198). The series can be described thus: flow; PBSMCT buffer; 1.28 nM in 10% human serum. Particulars: tags: His-Tag; R&D Systems.
Series [2] addresses T1, TNF-alpha (Homo sapiens, UniProt P01375 P01375:77-233). The series can be described thus: flow; PBSMCT buffer (2.5 mM MgCl2, 1 mM CaCl2), room temperature, 3 h; 0.27 nM in serum. To be noted: tags: biotinylated; R&D Systems; chain copies: 3 (inferred). On the procedure: (§1) MyOne carboxylic acid magnetic particles were coated with amino-modified candidate nucleic acid agents S01, B01, or VR11 (a previously published TNF-α candidate nucleic acid agent), or with mAb11 antibody (a commercial TNF-α antibody). […] The unbound TNF-α was washed away with PBSMCT, after which streptavidin-conjugated Alexa Fluor 488 was introduced and incubated for 15 minutes to label the bound TNF-α. The particles were washed with PBSMCT and median fluorescence intensities were quantified via FACS.
(§2) Sequences and relative affinities of all candidate nucleic acid agents are shown in the methods above.

The target in series [3] is T2, HRP-2 (Histidine-Rich Protein 2) (UniProt P05227 P05227:22-332).
T2 sequence: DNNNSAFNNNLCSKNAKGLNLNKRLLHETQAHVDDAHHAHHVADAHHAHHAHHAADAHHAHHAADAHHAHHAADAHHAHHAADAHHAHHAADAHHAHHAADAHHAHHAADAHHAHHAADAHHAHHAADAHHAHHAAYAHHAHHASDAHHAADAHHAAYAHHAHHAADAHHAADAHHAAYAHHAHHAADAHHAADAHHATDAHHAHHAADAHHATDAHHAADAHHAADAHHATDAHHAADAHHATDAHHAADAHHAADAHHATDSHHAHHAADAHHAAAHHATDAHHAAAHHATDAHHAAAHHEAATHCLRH
The series can be described thus: flow; PBSMCT buffer; 0.124 nM in 10% human serum. To be noted: tags: His-Tag; Fitzgerald Industries International.

Series [4] concerns the target T1, TNF-alpha. The series can be described thus: flow; PBSMCT buffer, room temperature, 3 h. Particulars: tags: biotinylated; R&D Systems; chain copies: 3 (inferred). On the procedure:
as §1, §2

T1 sequence (P01375 77-233, one chain of several): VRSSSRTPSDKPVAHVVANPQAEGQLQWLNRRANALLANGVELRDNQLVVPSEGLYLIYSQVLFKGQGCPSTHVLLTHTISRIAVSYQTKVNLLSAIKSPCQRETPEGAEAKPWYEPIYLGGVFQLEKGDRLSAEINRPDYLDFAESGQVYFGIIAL
Chain of NGAL (Neutrophil Gelatinase-Associated Lipocalin) (P80188 21-198, one chain of several): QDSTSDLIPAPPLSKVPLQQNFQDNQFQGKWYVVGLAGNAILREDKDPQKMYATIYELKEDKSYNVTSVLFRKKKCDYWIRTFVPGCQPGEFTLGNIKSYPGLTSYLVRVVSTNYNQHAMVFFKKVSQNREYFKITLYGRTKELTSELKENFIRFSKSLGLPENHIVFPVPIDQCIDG

B1: NGAL-05 (ssDNA)
DNA: GAATTCCGCCCTCGTCCCATCTCGGCTTGGTATGGCGGAGCTGGATAGTATAGTCGGAACACCAACCGAGAACGGAATTC
modifications: immobilized on magnetic particles
For B1, in series [1], binding was put at a Kd of 0.92 nM.

B2: S01 (ssDNA)
DNA: ATCCAGAGTGACGCAGCATGCTTAAGGGGGGGGCGGGTTAAGGGAGTGGGGAGGGAGCTGGTGTGGACACGGTGGCTTAGT
modifications: 5'-amino, coupled to magnetic particles
B2 yielded a Kd in series [2] of 0.19 nM.

B3: HRP-2-702 (ssDNA)
DNA: ATCCAGAGTGACGCAGCATTAAATAGGGGTTTGGCTTTGGGTCTGGCATATAGGAACAAGTTTGGACACGGTGGCTTAGT
modifications: immobilized on magnetic particles
B3: the Kd in series [3] was found to be 0.128 nM.

B4: B01 (ssDNA)
DNA: ATCCAGAGTGACGCAGCAGGTTAAGGTGTAGGTCCGGGTGGGGGGGTGGGTTGGGGGACTGGTGGACACGGTGGCTTAGT
modifications: 5'-amino, coupled to magnetic particles
B4 had a Kd in series [4] of 0.35 nM.

The term Kd denotes the free concentration of one partner at which half of the binding sites on the other are occupied at equilibrium, for simple one-to-one binding. A higher Kd goes with a looser complex.
